Test results: patent publication US20250223332A1 (BOARD OF TRUSTEES OF THE UNIVERSITY OF ILLINOIS, published 2025)

What was measured:
[1] = target: T1, hDLL4-Fc (Sino Biologics) (human, UniProt Q9NR61 27-524, limits assumed); experiment: SPR (Biacore T200), hDLL4-Fc on the chip, decoy as analyte, KD = kd/ka
T1 construct: Bought from Sino Biologics; also called Recombinant Fc-tagged hDLL4; recombinant hDLL4; not shown: Fc tag of the bought protein
Method: (§1) Affinity Analysis. The binding kinetics of N1₁₀₋₁₄Fc and N4₁₀₋₁₄Fc were analyzed using a Surface Plasmon Resonance (SPR)-based assay on the BIACORE™ T200 system (GE Healthcare). Human IgG Fc (Sino Biologics) was first immobilized on a CM5 biosensor chip. Subsequently, an appropriate concentration of hDLL4-Fc (Sino Biologics) and hJAG1-Fc (Sino Biologics) was captured to the surface at a Response Unit (RU) of up to 20,000. Various concentrations of N1₁₀₋₁₄Fc and N4₁₀₋₁₄Fc were then passed through the chip with running buffer (1×HBS-N (10 mM HEPES, 150 mM NaCl) with 0.005% polysorbate 20, 1 mM CaCl₂), 2 mM MgCl₂, PH 7.4). After each reaction, the captured ligands and analyte were removed by regeneration buffer (1×HBS-N (10 mM HEPES, 150 mM NaCl) with 0.005% polysorbate 20, 1 mM CaCl₂), 2 mM MgCl₂, pH 7.4). The whole reaction was conducted at 25° C. and a flow rate of 25 μl/min. Sensorgrams of each concentration were obtained and analyzed by BIACORE™ evaluation software (GE Healthcare). The equilibrium constant KD was calculated from the ratio of the dissociation rate constant kd to the association rate constant kₐ (kd/kₐ).
Surface plasmon resonance (SPR) spectroscopy was used to characterize and quantify the interactions between these proteins. […]

[2] = target: T1, hDLL4-Fc (Sino Biologics); experiment: SPR (Biacore T200), hDLL4-Fc on the chip, decoy as analyte, multi-cycle kinetics, 25 C
Method: as §1
Surface plasmon resonance (SPR) spectroscopy was used to characterize and quantify the interactions between these proteins. Recombinant Fc-tagged hDLL4 and hJAG1 were immobilized on the sensor chip using amine coupling and multi-cycle kinetic experiments were performed using increasing concentrations of either N1₁₀₋₁₄Fc or N4₁₀₋₁₄Fc. As a control, recombinant IgG Fc was immobilized on the sensor chip.

T1 sequence (Q9NR61 27-524 limits assumed): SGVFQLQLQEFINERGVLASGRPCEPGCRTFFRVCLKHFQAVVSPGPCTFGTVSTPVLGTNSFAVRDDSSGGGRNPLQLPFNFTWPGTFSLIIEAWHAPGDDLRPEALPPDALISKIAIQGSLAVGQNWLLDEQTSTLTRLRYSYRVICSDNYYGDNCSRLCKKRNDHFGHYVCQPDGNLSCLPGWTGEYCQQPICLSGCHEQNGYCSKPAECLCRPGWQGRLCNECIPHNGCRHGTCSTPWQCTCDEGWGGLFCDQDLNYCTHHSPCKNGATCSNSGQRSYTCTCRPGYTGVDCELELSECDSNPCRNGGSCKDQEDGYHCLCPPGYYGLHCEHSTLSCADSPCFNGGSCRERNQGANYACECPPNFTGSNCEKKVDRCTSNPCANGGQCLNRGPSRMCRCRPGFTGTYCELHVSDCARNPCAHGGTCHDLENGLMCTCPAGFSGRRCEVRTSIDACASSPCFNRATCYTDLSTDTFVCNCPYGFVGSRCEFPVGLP

Row | Binder | Kd [1] | koff [2] | kon [2]
1 | N110-14Fc (human Notch1 EGF-like repeats 10-14 fused to human IgG Fc) (Fc fusion, Produced in HEK293 cells; also called Notch1 peptibody; Notch1 decoy; not shown: human IgG Fc) ARGPRCISNPCNEGSNCDTNPVNGKAICTCPSGYTGPACSQDVDECSLGANPCEHAGKCINTLGSFECQCLQGYTGPRCEIDVNECVSNPCQNDATCLDQIGEFQCICMPGYEGVHCEVNTDECASSPCLHNGRCLDKINEFQCECPTGFTGHLCQYDVDECASTPCKNGAKCLDGPNTYTCVCTEGYTGTHCE | 605 nM | 0.019 s⁻¹ | 31500 M⁻¹ s⁻¹
2 | N410-14Fc (human Notch4 EGF-like repeats 10-14 fused to human IgG Fc) (Fc fusion, Produced in HEK293 cells; also called Notch4 peptibody; Notch4 decoy; not shown: human IgG Fc) LEDMCLSQPCHGDAQCSTNPLTGSTLCLCQPGYSGPTCHQDLDECLMAQQGPSPCEHGGSCLNTPGSFNCLCPPGYTGSRCEADHNECLSQPCHPGSTCLDLLATFHCLCPPGLEGQLCEVETNECASAPCLNHADCHDLLNGFQCICLPGFSGTRCEEDIDECRSSPCANGGQCQDQPGAFHCKCLPGFEGPRCQ | 962 nM | 0.0099 s⁻¹ | 10300 M⁻¹ s⁻¹
